The record followed here is patent CN116178530A (SHANGHAI JUNSHI BIOSCIENCES CO LTD; JUNMENG BIOSCIENCES CO …, dated 2023).

The target in this test is SARS-CoV-2的野生型RBD蛋白(货号SPD-C82E8，ACRO Biosystems) (SARS-CoV-2, UniProt P0DTC2 319-537).

B1: JS5-10 (antibody, human IgG1, kappa, L234A L235A, V domains shown)
VH: EVQLLESGGGLVQPGGSLRLSCAASGFTFSSYAMSWVRQAPGKGLEWVSAIVGSGGSTYYADSVKGRFIISRDNSKNTLYLQMNSLRAEDTAVYYCAKSLIYGHYDILTGAYYFDYWGQGTLVTVSS
VL: DIQMTQSPSSVSASVGDRVTIPCRASQGIGNWLAWYQQKPGKAPKLLIYAASSLQSGVPSRFSGSGSGTDFTLTISSLQPEDFATYYCQQANSFPPFGQGTRLEIKR
In general, Kd refers to the equilibrium constant for the complex coming apart. A higher Kd goes with lower affinity. What is called koff is the first-order rate constant of dissociation. Lower therefore signals slow dissociation. The kon is the rate constant with which the complex forms. A lower kon goes with slow association. The molecule B1 had a dissociation constant Kd of 2.04 nM, a koff of 0.000215 s⁻¹ and a kon of 106000 M⁻¹ s⁻¹.
